The values below come from patent US20250313612A1 (Adimab, published 2025).

Substitutions are numbered along the chain they refer to.

B1: ADI-14527 (antibody, V domains shown)
VH: QVQLVQSGAELKRPGSSVKVSCKASGVYLTSVAVNWVRQVPGHGFEWMGGILTGFGKVRHAQAFENRATLTADASTNTAYLELSGLQAEDTAAYYCAIIDPQDCTAASCFWVNWLDPWGQGTLVTVSS
VL: EIVLTQSPGTLTVSPGERATLSCRASQSVLSSHLAWYQQKPGQAPRLLIYAASSRATDVPDRFSGSGSGTDFTLTISRLEPQDFAVYYCQQYGSSPITFGQGTRLEIK
notes: IgG; also called Antibody Number 87
B2: ADI-14536 (antibody, V domains shown)
VH: QVQLVQSGGGVVQPGRSLRLSCAASGFSFSSYGMHWVRQAPGKGLEWVAAIFYHEIKDYYADSVNGRFSISRDNSKNTLYLEMYSLKVEDTAVYYCARDSGTLTGLPHDAFDIWGQGTTVTVSS
VL: DIQMTQSPSTLSASLGGRVTITCRASQSVTNRLAWYQHKPGKAPNLLIYKASTLEIGVPSRFSGSGSGTEFTLTISSLQPDDFATYYCQQYSSYSWTFGQGTKVEIK
notes: IgG; also called Antibody Number 96
B3: ADI-14535 (antibody, V domains shown)
VH: QVQLQQWGPGLVKPSQTLSLTCSVSGASVKIGSNFWTWIRQRPGKGLEWIGAIHDTGTTYYNPSLEPQVIISTDTSQNQFSLRLTSVTAADTAVYYCARGRGYTYGWRYFDYWGQGTLVTVSS
VL: SYVLTQPPSVSVSPGQTARITCSGDALPKQYAFWYQHKAGQAPVLVIKKDTERPSGIPERFSGSISGTTATLIISGVQAEDEADYYCQSSDSSGNVVLFGGGTQLTVL
notes: IgG; also called Antibody Number 95
B4: ADI-14528 (antibody, V domains shown)
VH: QVQLVQSGAEVKKPGSSVKVSCKVAGGSFSNYAIAWLRQAPGQGLEWMGGIIPAFNRAMYARKFQDRVTITAYASTTTAYLDITGLRSEDTALYYCARPAGDFGDLKWVRSPFDYWGQGTLVTVSS
VL: ETTLTQSPGTLSVSPGERATLSCRASQEVGINLAWYQQKPGQAPRLLIYGASTRATDVPARFSGSGSGTEFTLTISSLQSEDFAVYYCQEYNDWPPQLTFGPGTKVDIK
notes: IgG; also called Antibody Number 88
B5: ADI-14530 (antibody, V domains shown)
VH: QVQLVQSGAEVKKPGSSVKVSCKVVGGSFSNYGIGWVRQAPGQGPEWMGGIIPAFKTAKYAKKFQDRVTITADESSSTAYMEVRGLRPDDTALYYCARPEGDFGDLKWVRSPFDYWGQGTLVTVSS
VL: B4 VL with G9A, A19V, E28D, G30S, E70D, V85F, D107E
notes: IgG; also called Antibody Number 90
B6: ADI-14529 (antibody, V domains shown)
VH: EVQLVESGGGLVKPGGSLRLSCAASGFIFRNAWMSWVRQAPGKGLEWVGRIKRTSEGGSVDYATPVQGRFSISRDDSRNTLYLQMNSLETDDTAVYYCSTGPPYSYFDSSGYSVVDYWGQGTLVTVSS
VL: QSVVTQPPSVSGTPGQRVTISCTGSSSNIGTPFDVHWYQQIPETAPKLIISGGFSRPSGVPDRFSGSQSGTSASLAISGLRSEDEGDYYCAAWDDSLSGPVFGGGTKLTVL
notes: IgG; also called Antibody Number 89
B7: ADI-14532 (antibody, V domains shown)
VH: B6 VH with N79K, Q120L
VL: SYELTQPPSASGTPGQRVTISCSASSSNIGDNYFYWYQQLPGKAPTLLMYGSDQRSSGVPDRFSGSQSGTSASLAISGLRSEDEADYYCAAWDDSLSGPVFGGGTQLTVL
notes: IgG; also called Antibody Number 92
B8: ADI-14537 (antibody, V domains shown)
VH: B6 VH with N79K, Q120L
VL: B7 VL with S1Q, Y2P, E3V, Q106K
notes: IgG; also called Antibody Number 97
B9: ADI-14526 (antibody, V domains shown)
VH: EVQLVESGPGLVRPSQTLSIKCSVSGGSINRGAYFWTWIRQRPGKGLEWIGSIHDTGSYYNPSLKTRVSISGDTSKNLFTLELTSLTAADTAVYYCARGRGYSYGWRYFDSWGQGTLVTVSS
VL: SYVLTQPPSVSVSPGQTARITCSGDAFPRQYSYWYQQKAGQPPVLVILKDSERPSGIPARFSGSTSGTTVTLTITGVQAEDEADYYCQSSDSSGNYVVFGGGTKLTVL
notes: IgG; also called Antibody Number 86
B10: ADI-14534 (antibody, V domains shown)
VH: EVQLVESGGGVVQPGRSLRLSCAVSGFTFSNFGMHWVRQAPGKGLEWVAAISYDGRKRFQADSVKGRFTISRDNLKNTLNLQMNSLKTEDTAVYYCAKSSRLLDWLYNMDFWGQGTTVTVSS
VL: SYVLTQPPSVSVAPGKTARITCGGNILGSSSVHWFQQKAGQAPVLVIYYDSDRPSGIPERFSGSHSGDTATLTISRVEVGDEADYYCQVWDNSNSQGVFGGGTQLTVL
notes: IgG; also called Antibody Number 94
B11: ADI-14538 (antibody, V domains shown)
VH: B10 VH with R58T, T69I, L102F
VL: B10 VL with V3E, V12E, R19T, N25I, S29T, A39S, N94H
notes: IgG; also called Antibody Number 98
B12: ADI-14531 (antibody, V domains shown)
VH: QVQLVQSGAEVKKPGSSVKVSCKASGVILTSVAVSWVRQAPGKGFEWMGGILPGFNKVRHAQDFENRATHTADASTNTVYMELSGLKSEDTAVYYCAIIDPQDCTRASCFWVNWLAPWGQGTLVTVSS
VL: ETTLTQSPGTLTLSPGERATLSCRASQSVPSRNLAWYQQKPGQAPRLIIYAASNRATDIPDRFSGSGSGTDFTLTISRLEPQDFAVYYCQQYETSPITFGQGTKVDIK
notes: IgG; also called Antibody Number 91
B13: ADI-14551 (antibody, V domains shown)
VH: QVQLQESGPGLVKPSETLSLTCSVSGGSIKRGAYFWTWIRQRPGKGLEWIGSMHDSGDYYNPSLKTRVTILGDTTKNHFTLKLTSVTVADTALYYCARGRGYSYGWRFFDNWGQGTLVTVSS
VL: NFMLTQPPSVSVSPGHSTRITCSGDALPKQYAYWYQQKPGQAPVLIMSKDSERPSGIPERFTGSSSGTTVTLTISGVQAEDEADYYCQSGDTSGSYVVFGGGTKVTVL
notes: IgG

In one test the target is RSV F protein of subtype A (strain A2) on recombinant mKate-RSV (Respiratory syncytial virus subtype A …, UniProt P03420 26-574). Briefly: cell-based or functional assay.
B1: the “Neut IC50 (µg/ml) subtype A” value is above 10 µg/mL.

As for B2, the “Neut IC50 (µg/ml) subtype A” value turned out to be 0.56 µg/mL.

Turning to B3, the “Neut IC50 (µg/ml) subtype A” value is above 10 µg/mL.

On to B4, for which the “Neut IC50 (µg/ml) subtype A” value was above 10 µg/mL.

As for B5, the “Neut IC50 (µg/ml) subtype A” value was above 10 µg/mL.

As to B6, the “Neut IC50 (µg/ml) subtype A” value was found to be 2.38 µg/mL.

For B7, the “Neut IC50 (µg/ml) subtype A” value came to 0.168 µg/mL.

As for B8, the “Neut IC50 (µg/ml) subtype A” value came to 0.272 µg/mL.

For B9, the “Neut IC50 (µg/ml) subtype A” value amounted to 2.36 µg/mL.

Turning to B10, the “Neut IC50 (µg/ml) subtype A” value was above 10 µg/mL.

Take B11: the “Neut IC50 (µg/ml) subtype A” value was above 10 µg/mL.

For the molecule B12, the “Neut IC50 (µg/ml) subtype A” value is above 10 µg/mL.

Another test has as its target RSV F protein of subtype B (18537) on recombinant mKate-RSV (Respiratory syncytial virus subtype B …, UniProt P13843 26-574). In words: cell-based or functional assay.
On to B1, for which the “Neut IC50 (µg/ml) subtype B” value is above 10 µg/mL.

Turning to B2, the “Neut IC50 (µg/ml) subtype B” value turned out to be 0.696 µg/mL.

In the case of B3, the “Neut IC50 (µg/ml) subtype B” value was above 10 µg/mL.

For the molecule B4, the “Neut IC50 (µg/ml) subtype B” value turned out to be 0.705 µg/mL.

For B5, the “Neut IC50 (µg/ml) subtype B” value was above 10 µg/mL.

As to B6, the “Neut IC50 (µg/ml) subtype B” value was determined as 0.991 µg/mL.

As to B7, the “Neut IC50 (µg/ml) subtype B” value turned out to be 0.208 µg/mL.

On to B8, for which the “Neut IC50 (µg/ml) subtype B” value was found to be 0.292 µg/mL.

For the molecule B9, the “Neut IC50 (µg/ml) subtype B” value worked out at 9.67 µg/mL.

Consider B10, for which the “Neut IC50 (µg/ml) subtype B” value is above 10 µg/mL.

In the case of B11, the “Neut IC50 (µg/ml) subtype B” value was above 10 µg/mL.

Turning to B12, the “Neut IC50 (µg/ml) subtype B” value is above 10 µg/mL.

A further test deals with T1, RSV F ectodomain stabilized in the postfusion conformation (F ΔFP), subtype B (Respiratory syncytial virus subtype B, UniProt P13843 26-109; P13843 147-524).
T1 construct: extracellular domain; trimer; also called Postfusion subtype B
Briefly: BLI, IgG on AHQ sensors, 100 nM antigen.
Take B1: the equilibrium dissociation constant (Kd) was found to be 0.645 nM.

In the case of B2, the Kd stood at 0.382 nM.

The molecule B3 gave a Kd of 0.238 nM.

The molecule B5 returned a Kd of 37.6 nM.

B13 displayed an equilibrium dissociation constant (Kd) of 0.195 nM.

With B6, the affinity, expressed as Kd, was 0.798 nM.

B7 displayed a Kd of 0.136 nM.

On to B8, for which the dissociation constant (Kd) was determined as 0.142 nM.

In turn, B9 had a Kd of 0.342 nM.

In the case of B10, the dissociation constant Kd stood at 0.93 nM.

As for B11, the affinity, expressed as Kd, was 0.154 nM.

B12 registered a dissociation constant (Kd) of 23.8 nM.

The target in a further test is T2, RSV F ectodomain stabilized in the postfusion conformation (F ΔFP), subtype A (Respiratory syncytial virus subtype A, UniProt P03420 26-109; P03420 147-524).
T2 construct: extracellular domain; trimer; also called Postfusion subtype A; Postfusion RSV F
Briefly: BLI, IgG on AHQ sensors, 100 nM antigen.
B1 returned a dissociation constant Kd of 0.889 nM.

In turn, B2 displayed a Kd of 0.404 nM.

The molecule B3 came in with an equilibrium dissociation constant (Kd) of 0.23 nM.

B4 displayed a Kd of 35.2 nM.

For B5, the Kd is 47.2 nM.

Regarding B13, the dissociation constant (Kd) turned out to be 0.207 nM.

Take B6: the affinity, expressed as Kd, was 1.71 nM.

B7 registered a Kd of 0.224 nM.

On to B8, for which binding was characterised by a dissociation constant (Kd) of 0.211 nM.

Consider B9, for which binding was put at a Kd of 0.346 nM.

Consider B10, for which the dissociation constant Kd stood at 1 nM.

In turn, B11 yielded a Kd of 0.35 nM.

In turn, B12 showed a Kd of 12.6 nM.
